Here are results for 15 molecules from patent publication US6413935.

Non-standard residues stand in square brackets, D forms with d. No end group written: not given here. Cha = N[C@@H](CC1CCCCC1)C(=O)O; 14 = not defined here

The IC50 is the concentration that gives 50% inhibition. Lower therefore signals greater potency.

Assay [1] concerns the target T1, HLA-DR3 (DRB1*0301), purified from cell line MAT (human).
T1 chain 1: not shown
T1 chain 2: not shown
The assay is described as follows: competition vs 125I-peptide, purified class II MHC.

Assay [2] concerns the target T2, HLA-DR5 (DRB1*11011), purified from cell line SWEIG (human).
T2 chain 1: not shown
T2 chain 2: not shown
The assay can be described thus: competition vs 125I-peptide, purified class II MHC.

Assay [3] concerns the target T3, HLA-DR4w4 (DRB1*0401), purified from cell line PREISS (human).
T3 chain 1: not shown
T3 chain 2: not shown
The assay is described as follows: competition vs 125I-peptide, purified class II MHC.

In assay [4] the target is T4, HLA-DR3 (DRB1*0301), purified from MAT cells (human).
T4 chain 1: not shown
T4 chain 2: not shown
The assay can be described thus: 125I-peptide inhibition, purified class II.

The target in assay [5] is T5, HLA-DRw53 (DRB4*0101), purified from L257.6 transfected fibroblasts (human).
T5 chain 1: not shown
T5 chain 2: not shown
The assay is described as follows: 125I-peptide inhibition, purified class II.

In assay [6] the target is HLA-DR1 (DRB1*0101), purified from LG2 cells (human). The assay can be described thus: 125I-peptide inhibition, purified class II.
For assay [7], the target named is T6, HLA-DR5 (DRB1*11011), purified from SWEIG cells (human).
T6 chain 1: not shown
T6 chain 2: not shown
The assay can be described thus: 125I-peptide inhibition, purified class II.

In assay [8] the target is T7, HLA-DR7 (DRB1*0701), purified from PITOUT cells (human).
T7 chain 1: not shown
T7 chain 2: not shown
The assay is described as follows: 125I-peptide inhibition, purified class II.

Assay [9] concerns the target T8, HLA-DR4w4 (DRB1*0401), purified from PREISS cells (human).
T8 chain 1: not shown
T8 chain 2: not shown
The assay is described as follows: 125I-peptide inhibition, purified class II.

In assay [10] the target is mouse class II IE^k, purified from CH12 cells (mouse). The assay can be described thus: 125I-peptide inhibition, purified class II.
The target in assay [11] is T9, mouse class II IA^b, purified from DB27.4 cells (mouse), P14434.
T9 chain 1: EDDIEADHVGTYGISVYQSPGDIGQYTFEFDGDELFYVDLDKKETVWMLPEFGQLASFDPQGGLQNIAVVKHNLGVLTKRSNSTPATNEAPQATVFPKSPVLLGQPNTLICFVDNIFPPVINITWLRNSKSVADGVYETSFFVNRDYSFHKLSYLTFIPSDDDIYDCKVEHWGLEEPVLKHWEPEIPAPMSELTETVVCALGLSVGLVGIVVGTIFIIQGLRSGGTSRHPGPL
T9 chain 2: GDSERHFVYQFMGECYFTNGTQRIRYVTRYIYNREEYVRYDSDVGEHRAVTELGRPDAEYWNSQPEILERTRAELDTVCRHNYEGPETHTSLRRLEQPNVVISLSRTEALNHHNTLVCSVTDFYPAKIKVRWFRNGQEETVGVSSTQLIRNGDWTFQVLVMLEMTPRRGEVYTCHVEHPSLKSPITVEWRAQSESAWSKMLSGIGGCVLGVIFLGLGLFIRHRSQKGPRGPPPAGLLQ
The assay is described as follows: 125I-peptide inhibition, purified class II.

[dA]K[14]VKANTLKAA[dA]-NH2 (reading uncertain; also: printed as aK(14)VKANTLKAAa-NH2) [peptide 965.011, aK(14)…a-NH2]: the 50% inhibitory concentration (IC50) in [1] is 592 nM; in assay [2], 11.8 nM.

Consider [dA]K[14]VKAWTLKAA[dA]-NH2 (reading uncertain; also: printed as aK(14)VKAWTLKAAa-NH2) [peptide 965.022, aK(14)…a-NH2], for which the IC50 in [3] came to 0.8 nM; in [2], 1.1 nM.

As for [dA]K[14]VWANTLKAA[dA]-NH2 (reading uncertain; also: printed as aK(14)VWANTLKAAa-NH2) [peptide 965.032, aK(14)…a-NH2], the IC50 in [1] stood at 849 nM; in [3], 0.7 nM; in assay [2], 2.9 nM.

B1: 906.04 (peptide)
peptide: [dA]V[Cha]AAAATLKAA[dA]-NH2
modifications: N-terminus assumed
SMILES: CC(C)C[C@H](NC(=O)[C@@H](NC(=O)[C@H](C)NC(=O)[C@H](C)NC(=O)[C@H](C)NC(=O)[C@H](C)NC(=O)[C@H](CC1CCCCC1)NC(=O)[C@@H](NC(=O)[C@@H](C)N)C(C)C)[C@@H](C)O)C(=O)N[C@@H](CCCCN)C(=O)N[C@@H](C)C(=O)N[C@@H](C)C(=O)N[C@H](C)C(N)=O
Regarding B1, the fold increase in reactivity vs 760.57 in assay [4] was 3 fold; in [5], 30 to 100 fold.

As to [dA]K[14]VKANTLKAA[dA]-NH2 (reading uncertain; also: printed as aK(14)VKANTLKAAa-NH2) [peptide 965.012, aK(14)…a-NH2], the 50% inhibitory concentration (IC50) in assay [1] came to 4590 nM; in assay [3], 2.1 nM; in assay [2], 2.2 nM.

B2: 906.30 (peptide)
peptide: [dA]A[Cha]AAAATEKAA[dA]-NH2
modifications: N-terminus assumed
SMILES: C[C@H](NC(=O)[C@H](C)NC(=O)[C@H](C)NC(=O)[C@H](CC1CCCCC1)NC(=O)[C@H](C)NC(=O)[C@@H](C)N)C(=O)N[C@@H](C)C(=O)N[C@H](C(=O)N[C@@H](CCC(=O)O)C(=O)N[C@@H](CCCCN)C(=O)N[C@@H](C)C(=O)N[C@@H](C)C(=O)N[C@H](C)C(N)=O)[C@@H](C)O
Regarding B2, the fold loss of binding reactivity vs 760.57 amounted to 8 fold in assay [6], 10 fold in assay [7], 10 fold in [8] and 7 fold in assay [9].

With AKFVAAWTLKAAA (modifications not checked) [1024.03], the 50% inhibitory concentration (IC50) in assay [7] was 18 nM; in [10], 3500 nM; in assay [9] it was 2 nM.

B3: 906.16 (peptide)
peptide: [dA]A[Cha]AVAATLKAA[dA]-NH2
modifications: N-terminus assumed
SMILES: CC(C)C[C@H](NC(=O)[C@@H](NC(=O)[C@H](C)NC(=O)[C@H](C)NC(=O)[C@@H](NC(=O)[C@H](C)NC(=O)[C@H](CC1CCCCC1)NC(=O)[C@H](C)NC(=O)[C@@H](C)N)C(C)C)[C@@H](C)O)C(=O)N[C@@H](CCCCN)C(=O)N[C@@H](C)C(=O)N[C@@H](C)C(=O)N[C@H](C)C(N)=O
In assay [4], B3 came in with a fold increase in binding vs 760.57 of 2 to 4 fold. Also, the fold increase in reactivity vs 760.57 in assay [5] turned out to be 100 fold.

B4: 906.50 (peptide)
peptide: [dA]A[Cha]AAAATLKAF[dA]-NH2
modifications: N-terminus assumed
SMILES: CC(C)C[C@H](NC(=O)[C@@H](NC(=O)[C@H](C)NC(=O)[C@H](C)NC(=O)[C@H](C)NC(=O)[C@H](C)NC(=O)[C@H](CC1CCCCC1)NC(=O)[C@H](C)NC(=O)[C@@H](C)N)[C@@H](C)O)C(=O)N[C@@H](CCCCN)C(=O)N[C@@H](C)C(=O)N[C@@H](Cc1ccccc1)C(=O)N[C@H](C)C(N)=O
As for B4, the fold increase in reactivity vs 760.57 in assay [4] came out at 8 fold; in assay [5], 40 fold.

B5: 906.17 (peptide)
peptide: [dA]A[Cha]AFAATLKAA[dA]-NH2
modifications: N-terminus assumed
SMILES: CC(C)C[C@H](NC(=O)[C@@H](NC(=O)[C@H](C)NC(=O)[C@H](C)NC(=O)[C@H](Cc1ccccc1)NC(=O)[C@H](C)NC(=O)[C@H](CC1CCCCC1)NC(=O)[C@H](C)NC(=O)[C@@H](C)N)[C@@H](C)O)C(=O)N[C@@H](CCCCN)C(=O)N[C@@H](C)C(=O)N[C@@H](C)C(=O)N[C@H](C)C(N)=O
Regarding B5, the fold increase in binding vs 760.57 in [4] was in the range of 2 to 4 fold. The same molecule yielded a fold increase in reactivity vs 760.57 in assay [5] of 100 fold.

B6: 906.18 (peptide)
peptide: [dA]A[Cha]AAKATLKAA[dA]-NH2
modifications: N-terminus assumed
SMILES: CC(C)C[C@H](NC(=O)[C@@H](NC(=O)[C@H](C)NC(=O)[C@H](CCCCN)NC(=O)[C@H](C)NC(=O)[C@H](C)NC(=O)[C@H](CC1CCCCC1)NC(=O)[C@H](C)NC(=O)[C@@H](C)N)[C@@H](C)O)C(=O)N[C@@H](CCCCN)C(=O)N[C@@H](C)C(=O)N[C@@H](C)C(=O)N[C@H](C)C(N)=O
Molecule B6 had a fold decrease of binding activity vs 760.57 in assay [6] of 8 fold.

In the case of [dA]K[14]VWANTLKAA[dA]-NH2 (reading uncertain; also: printed as aK(14)VWANTLKAAa-NH2) [peptide 965.031, aK(14)…a-NH2], the IC50 in assay [3] amounted to 2.1 nM; in assay [2], 8.3 nM.

On to [dA]A[Cha]AAAKTAAAA[dA] [760.50], for which the results for the IC50 in assay [7] and in assay [11] were 6.1 nM and 200 nM, respectively.

[dA]A[Cha]AAEATLKAA[dA]-NH2 [906.19] registered a concentration for half-maximal inhibition (IC50) in assay [4] of 1500 nM. This counts as single-digit micromolar.

B7: 906.20 (peptide)
peptide: [dA]A[Cha]AAQATLKAA[dA]-NH2
modifications: N-terminus assumed
SMILES: CC(C)C[C@H](NC(=O)[C@@H](NC(=O)[C@H](C)NC(=O)[C@H](CCC(N)=O)NC(=O)[C@H](C)NC(=O)[C@H](C)NC(=O)[C@H](CC1CCCCC1)NC(=O)[C@H](C)NC(=O)[C@@H](C)N)[C@@H](C)O)C(=O)N[C@@H](CCCCN)C(=O)N[C@@H](C)C(=O)N[C@@H](C)C(=O)N[C@H](C)C(N)=O
For the molecule B7, the fold reduction of binding vs 760.57 in [8] came out at 30 fold.
